Molecular target: p53, P04637
Sequence (P04637 whole entry, looked up): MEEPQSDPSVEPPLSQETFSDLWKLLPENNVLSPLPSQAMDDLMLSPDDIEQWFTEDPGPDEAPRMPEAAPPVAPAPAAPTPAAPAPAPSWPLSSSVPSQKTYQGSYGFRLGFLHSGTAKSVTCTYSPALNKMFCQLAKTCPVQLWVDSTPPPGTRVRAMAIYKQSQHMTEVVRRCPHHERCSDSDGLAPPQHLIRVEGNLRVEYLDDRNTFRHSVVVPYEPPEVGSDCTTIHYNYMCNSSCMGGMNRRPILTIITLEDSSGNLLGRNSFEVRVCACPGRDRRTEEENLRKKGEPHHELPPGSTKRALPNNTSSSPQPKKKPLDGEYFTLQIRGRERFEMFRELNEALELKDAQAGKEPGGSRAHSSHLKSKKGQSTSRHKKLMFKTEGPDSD

B1: recombinant PP5 (protein phosphatase 5) (protein)
chain: MAMAEGERTECAEPPRDEPPADGALKRAEELKTQANDYFKAKDYENAIKFYSQAIELNPSNAIYYGNRSLAYLRTECYGYALGDATRAIELDKKYIKGYYRRAASNMALGKFRAALRDYETVVKVKPHDKDAKMKYQECNKIVKQKAFERAIAGDEHKRSVVDSLDIESMTIEDEYSGPKLEDGKVTISFMKELMQWYKDQKKLHRKCAYQILVQVKEVLSKLSTLVETTLKETEKITVCGDTHGQFYDLLNIFELNGLPSETNPYIFNGDFVDRGSFSVEVILTLFGFKLLYPDHFHLLRGNHETDNMNQIYGFEGEVKAKYTAQMYELFSEVFEWLPLAQCINGKVLIMHGGLFSEDGVTLDDIRKIERNRQPPDSGPMCDLLWSDPQPQNGRSISKRGVSCQFGPDVTKAFLEENNLDYIIRSHEVKAEGYEVAHGGRCVTVFSAPNYCDQMGNKASYIHLQGSDLRPQFHQFTAVPHPNVKPMAYANTLLQLGMM
For B1, the “dephosphorylation of p53 in vitro” value was “recombinant PP5 can dephosphorylate p53 in vitro”.

Source: patent publication US7332335
